Legend:
[1] = biological target: RSV F protein of subtype A (strain A2) on recombinant mKate-RSV virus (Respiratory syncytial virus subtype A …, UniProt P03420 26-574); test: cell-based or functional assay
[2] = biological target: RSV F protein of subtype B (18537) on recombinant mKate-RSV virus (Respiratory syncytial virus subtype B …, UniProt P13843 26-574); test: cell-based or functional assay
[3] = biological target: T1, RSV F subtype B, furin-cleaved ectodomain stabilized in the prefusion conformation (DS-Cav1) (Respiratory syncytial virus subtype B); test: BLI, IgG on AHQ sensor, 100 nM antigen
T1 construct: extracellular domain; Trimeric soluble antigen; also called Prefusion subtype B

[4] = biological target: T2, RSV F subtype A, furin-cleaved ectodomain stabilized in the prefusion conformation (DS-Cav1) (Respiratory syncytial virus subtype A, UniProt P03420 26-524); test: BLI, IgG on AHQ sensor, 100 nM antigen
T2 construct: extracellular domain; Trimeric soluble antigen; also called Prefusion subtype A

Row | Binder | Neut IC50 (µg/ml) subtype A [1] [µg/mL] | Neut IC50 (µg/ml) subtype B [2] [µg/mL] | Kd [3] [pM] | Kd [4] [pM]
1 | ADI-18962 (antibody, V domains shown, full-length IgG from yeast) VH: QVQLVQSGGGLVKPEGSLRLSCAASGFTFSSYSMNWVRQAPGKGLEWVSSISSSSSYIYYADSVKGRFTISRDNAKNSLYLQMNSLRAEDTAVYYCARVSTELGYYYMDVWGKGTTVTVSS VL: not shown | 4.44 | > 10 | 22800 | 
2 | ADI-18965 (antibody, V domains shown) VH: QVQLVQSGAEVKKPGASVKISCKASGYPFSSYPMHWVRQAPGQRLEWMGWINVDNENTKYSWKFRGRVTITRDTSASTVYMELSSLISEDTAVYYCGRDWDGAIRVLDYWGQGTLVTVSS VL: DIVMTQTPDSLAVSLGERATITCKSSQSVLFSSDNKNYLAWYQQKPGQPPKLLIYWASIRESGVPDRFGGSGSGTHFTLTITSVQAADVAVYYCQQYYGNFPTFGQGTRLEIK | 3.02 | 6.89 |  | 
3 | ADI-18940 (antibody, V domains shown, full-length IgG from yeast) VH: QVQLVQSGAGVKKPGASVRVSCTASGYTFTDYFINWVRQAPGGGLEWMGWVNPLSGATRYAQNFAGRVTMTTDTSITTGYLDLRNLRLDDTAVYFCASQSSPYTPGAMDVWGQGTTVTVSS VL: DIVMTQSPSSLSASVGDRVSITCRTSQTISGYISWYQKKPGKAPKLLIYAASNMYSGVPSRFSGSESGTDFTLTITSLQPEDFATYFCQLNSGALFTFGPGTKVDIK | 0.023 | 0.063 | 1560 | 
4 | ADI-18931 (antibody, V domains shown, full-length IgG from yeast; also called Antibody Number 285; Ab # 285) VH: EVQLVESGGGLQKPGRSLRLSCSASGFTFGDYAMSWFRQAPGKGLEWVGFIRSKAYVGTAEYAASVKGRFTISRDDSKSIAYLHMNSLKTEDTAVYYCTRDDILTGFYDRSYYYGIHVWGQGTTVTVSS VL: EIVMTQSPVTLSVSPGERATLSCRASQSVNSNLAWYQKKPGQAPRLLIYSASTRATGVPARFSGSGSGTEFTLTVSSLQSEDFAVYYCQQYDNWPPYTFGQGTKVEIK | > 10 | > 10 | 488 | 
5 | ADI-18944 (antibody, V domains shown, full-length IgG from yeast) VH: QVQLVQSGAEVKKPGASVKVSCKTSGYTFSNYGISWLRQAPGQGLEWMAWISPYNGNTKSAQRFQGRVIMTTDTSTRTAHMEVKSLRTDDTATYYCARDPAVDAIPMLDYWGQGTTVTVSS VL: DIQVTQSPLSLPVTLGQPASISCRSSQSLVYTDGNTYLSWFQQRPGQSPRRLIYRVSHRDSGVPDRFTGSGSGTDFTLIIRRVEAEDVGVYYCMQGTHWPLTFGGGTKVEIK | 0.026 | 0.074 | 337 | 
6 | ADI-18972 (antibody, V domains shown, full-length IgG from yeast; also called Antibody Number 320; Ab # 320) VH: QVQLVQSGAEVKKPGASVKVSCKTSGYTFSNYGISWLRQAPGQGLEWMAWISPYNGNTKSAQRFQGRVIMTTDTSTRTAHMEVKSLRTDDTATYYCARDPAVDAIPMLDYWGQGTLVTVSS VL: DIQMTQSPLSLPVTLGQPASISCRSSQSLVYTDGNTYLSWFQQRPGQSPRRLIYRVSHRDSGVPDRFTGSGSGTDFTLIIRRVEAEDVGVYYCMQGTHWPLTFGGGTKLEIK | 0.016 | 0.107 | 368 | 
7 | ADI-18949 (antibody, V domains shown, full-length IgG from yeast) VH: QVQLVQSGAEVKKPGASVKVSCKTSGYTFSNYGISWLRQAPGQGLEWMAWISPYNGNTKSAQRFQGRVIMTTDTSTRTAHMEVKSLRTDDTATYYCARDPAVDAIPMLDYWGQGTMVTVSS VL: EIVLTQSPLSLPVTLGQPASISCRSSQSLVYTDGNTYLSWFQQRPGQSPRRLIYRVSHRDSGVPDRFTGSGSGTDFTLIIRRVEAEDVGVYYCMQGTHWPLTFGGGTKVEIK | 0.04 | 0.076 | 308 | 
8 | ADI-18959 (antibody, V domains shown, full-length IgG from yeast; also called Antibody Number 310; Ab # 310) VH: QVQLVQSGAEVKKPGASVRVSCKVYGHTLSELSMHWVRQGPEGGLEWMGAFDHEDGEGIYPQKFQGRITMTADISTDTAHMELRSLRSEDTAVYYCATPTPVGATDFWGQGTLVTVSS VL: DIRVTQSPSSLSASVGDRVTITCRASQSISSYLNWYQQKPGKAPKLLIYAASTLQRGGPSRFSGSGSGTDFTLSISSLQPEDFATYYCQQTYIIPYTFGQGTKLEIK | 7.21 | 2.26 |  | 4680
9 | ADI-18956 (antibody, V domains shown, full-length IgG from yeast) VH: QVQLVQSGAELKKPGSSVKVSCKASADTFKSYAINWVRQAPGQGLEWMGEFIPIFGVSPSAQKFQGRVTITADRSTSTAYMELSSLKSDDSAIYYCATRLYTLGSPFDNWGQGTTVTVSS VL: QPVLTQPRSVSGSPGQSVTISCTGTSSDVGDYDYVSWYQHLPGEVPKLIVYNVIKRPSGVPDRFSGSKSGNTASLTISGLQAEDEADYYCCSYAGRYIYVFGSGTKLTVL | > 10 | > 10 | 224 | 
10 | ADI-18905 (antibody, V domains shown) VH: EVQLVESGPTLVKPSETLSLTCVVSGGSVYRSSNYWAWIRQPPGKGLEWIGSVYHSGNPYSNPSLQSRVSVSIDTSKNQFSLKLYSVTAADSAIYYCACKRADADDVDYVAGLTGFPWYFDVWGRGTLVTVSS VL: EIVLTQSPSTLSASVGDRVTITCRASQSISSWLAWYQQKPGKTPKLLIYKASTLESGVPSRFSGSGSGTEFTLTISSLQPDDFATYYCQQYHVYFPLTFGGGTKVEIK | 0.685 | 3.68 |  | 
11 | ADI-18925 (antibody, V domains shown) VH: QVQLVESGGGVVQPGRSLRLSCAASGFPFSLYAMHWVRQAPGKGLEWVAFISYDGSNKYYADSVKGRFTISRDSSKNTLYLQMDSLTPEDTAVYYCAKPIVGPTTGYFDYWGPGTLVTVSS VL: EIVLTQSPATLSLSPGERATLSCRASQSVSSYLAWYQQKPGQAPRLLIYDASNRATGIPARFSGSGSGTDFTLTISSLEPEDFAVYYCQQRSNWYTFGQGTKVEIK | > 10 | > 10 |  | 
12 | ADI-18943 (antibody, V domains shown, full-length IgG from yeast) VH: QVQLQESGPGLVKPSETLSLTCSVSGASVTSREYYWGWIRQAPGKGLQWIASIHHSPFQSDGNPSLTSRVSSSVVTSKNQLALRLSSVTAADTAVYYCAGAFWEVWTGLYSPPFDFWGQGILVTVSS VL: EIVMTQSPGTLSLSPGERATLSCWASQTVSSGYLAWYQQKPGQAPRLLIYGASTRATDIPDRFSGSGSGTGFTLTISRLEPEDLAVYYCQQYSSSPLTFGGGTKVEIK | 0.027 | 0.043 | 725 | 
13 | ADI-18894 (antibody, V domains shown, full-length IgG from yeast; also called Antibody Number 249; Ab # 249) VH: QVQLVQSGGGVVQPGRSLKHSCAASGFTFNNYAIHWVRQAPGKGLEWVAAISYDGSNEYYSNSVKGRFTISRDNSKYTLYLQMNSLRPEDTAVYYCARGASYYYVSSDLGYWGQGTLVTVSS VL: QPVLTQPPSVSGAPGQRVTISCTGSSSNIGSGYDVHWYQQLPGTAPKVVIYGNINRPSGVPERFSGSKSGTSASLAITGLQAEDEADYYCQSYDSLSASWVFGGGTKLTVL | 0.345 | 0.123 | 327 | 
14 | ADI-18901 (antibody, V domains shown) VH: EVQLVESGAEVKRPGASVKISCKASEYAFTAHYLHWVRQAPDQGLEWMGWISPKSGGTNYAQKFHGRVSMTSDTSISTVYMELSSLTSDDTAVYYCARSSLVGASPNFDFWGQGTLVTVSS VL: QSVLTQPPSVSAAPGQRVTISCSGSSSNIGNNYVSWYQQLPGTTPKVLIYDNNQRPSGIPDRFSGSKSGTSATLAISGLQTGDEAVYYCGTWDASLSAAMVFGGGTKLTVL | 5.65 | 5.76 |  | 
15 | ADI-18884 (antibody, V domains shown, full-length IgG from yeast; also called Antibody Number 240; Ab # 240) VH: EVQLVESGAEMKKPGASVKVSCKASGYTFTNYAIHWVRQAPGQSLEWMGWINAGNGNTQYSQKFQGRVTFTRDTSASTVYMDLSSLRSEDTAVYYCARGQIVVIPRANFWFDPWGQGTLVTVSS VL: not shown | 0.073 | 0.239 | 204 | 
16 | ADI-18910 (antibody, V domains shown, full-length IgG from yeast; also called Antibody Number 265; Ab # 265) VH: QVQLVQSGAEVKKPGSSVKVSCKASGGTFSSYAISWVRQAPGQGLEWMGGIIPMFDIVDYAQKFQGRVTITADESTNTAYMELTSLRSEDTAVYYCARTAALGPPGTIVGYMDVWGKGTTVTVSS VL: DIVMTQSPLSLPVTPGEPASISCRSSQSLLQSNGYNYLDWYLQKPGQAPQLLIYLGSNRASGVPDKFSGSGSGTDFTLKISRVEAEDVGVYYCMQTLQTPWTFGQGTKVEIK | > 10 | 0.767 | 10600 | 
17 | ADI-18957 (antibody, V domains shown, full-length IgG from yeast) VH: EVQLLESGGGLVKPGESLRLSCAASGFTLSGYYMNWVRQAPGRGLEWVSSISGGSNYINYADSVKGRFTISRDNAKNSLYLQMNSLRVEDTAVYYCARVHVDLVTTIFGVDFDFWGQGTLVTVSS VL: QSVLTQPPSVSGAPGQRVTISCTGSSSNIGAGYDVHWYQQLPGTAPKLLIYGNTNRPAGVPDRFSGSKSGSSASLAITGLQAEDEADYYCQSYDSSLSGAIFGGGTKLTVL | 1.34 | 6.08 | 324 | 
18 | ADI-18907 (antibody, V domains shown, full-length IgG from yeast; also called Antibody Number 262; Ab # 262) VH: QVQLVQSGPEVKKPGSSVKVSCKASGGTFSSYAITWVRQAPGQGLEWMGGIIPSFDRVDYSRNFKGRVTFTADKSANTAYMELTNVRSDDTAVYYCARGCCGAVAGFQHWGQGTGVTVSS VL: DIVLTQTPATLSLSPGETATLSCRASQSVTTYLAWYQQKPGQAPRLLIYDASNRATGVPTRFSGSGSGTDFTLTISSLEPEDYAIYYCQQRTTGVTFGGGTKVEIK | 3.3 | > 10 | 204 | 
19 | ADI-18929 (antibody, V domains shown) VH: QVQLVQSGGGLVKPGGSLRLSCAASGFTFNDYYMNWIRQAPGKGLEWVSYISSSGETKYYADSVKGRFTISRDNAKNSLYLEMNSLRVEDTAVYYCARDAVIVVGPVAVHYQYYADVWGKGTTVTVSS VL: not shown | 0.261 | 0.369 |  | 
